Measured values taken from article PMC3607249.

Target: Sulfolobus islandicus Orc1-1 Walker B mutant E147A (ATP-bound) (Sulfolobus islandicus)
Assay: AUC

Substance: Sulfolobus islandicus Orc1-1 Walker B mutant E147A (ATP-bound) (natural protein)
- stoichiometry N: 2
